From patent US6380375B1, “DNA encoding monkey gonadotropin releasing hormone receptor” (Merck & Co., Inc., priority 1999, dated 2002)

Experiments:
[1] = molecular target: monkey gonadotropin-releasing hormone (GnRH) receptor (monkey); assay: whole cell radioligand binding, eight of the 96 neoR CHO-K1 clones screened
[2] = molecular target: monkey gonadotropin-releasing hormone (GnRH) receptor (monkey); assay: whole cell radioligand binding, best CHO-K1 clone expressing the monkey GnRH receptor
[3] = molecular target: monkey gonadotropin-releasing hormone (GnRH) receptor (monkey); assay: cell-based or functional assay
[4] = tested on: monkey GnRH receptor; assay: Phosphoinositide (PI) turnover assay in CHO-K1 cells stably expressing the monkey GnRH receptor; assay type: cell-based; conditions: monkey GnRHR-CHO-K1 cells, 37° C., 1 hour, FIG. 7; read-out: EC50 of GnRH-stimulated PI turnover
Procedure: The ORF of the monkey GnRH receptor was subcloned into a polycistronic expression vector pIRES1.neo (Clontech Laboratories, Palo Alto, Calif.) to generate cells that stably express these receptors. In this vector, the cloned receptor cDNA and the neo gene were transcribed into one mRNA. The plasmid DNA of pIRES1.neo-mkGnRHR was transfected into CHO-K1 cells using the method of lipofectin. Transfection was carried out for overnight and the cells were split 48 hours later. G418 at 1 mg/ml was added 24 hours after splitting, and its concentration was increased to 2 mg/ml in 2-3 days. After 10 days selection by G418, colonies were picked and transferred to 24-well plates. The monkey GnRH receptor expression clones were screened by the whole cell binding assay using a radiolabeled peptide agonist of GnRH, 5-(^125Iodo-Tyr)-Buserelin (Woods Assay, Portland, Oreg.). […] After single cell isolation, the membrane from this clone was prepared, and the membrane binding assay was performed using ^125I-buserelin. […] The GnRH-stimulated PI turnover was also performed.
CHO-K1 cells stably expressing the monkey GnRH receptor are functionally coupled to phospholipase C. […] The eluate was then counted in a scintillation counter.

[5] = tested on: monkey GnRH receptor; assay: Aequorin bioluminescence assay in CHO-K1 cells stably co-expressing the monkey GnRH receptor and apo-aequorin; assay type: cell-based; conditions: CHO-K1 cells co-expressing monkey GnRHR and apo-aequorin; P1/(P1+P2) response
Procedure: To construct this dual stable cell line, the 600 bp aeq gene was cut out by EcoRI and KpnI from pcDNA3.aeq, and inserted into pIRES1hyg (Clontech Laboratories, Palo Alto, Calif.) at BamHI that was blunt-ended. The positive clones were identified by colony-hybridization using the probe of aeq. The new construct that contained aeq and hyg was transfected into monkey GnRHR-CHO-K1 cells (as Example 5). The transfectants were selected by 600 μg/ml hygromycin (Boehringer Mannheim, Indianapolis, Ind.) for 10 days, and 480 hyg^r colonies were transferred into 96-well plates. These clones were assayed for aequorin by the aequorin bioluminescence assay as described in Example 7, and many positive clones were identified. […] This clone was single cell isolated, and used for the functional evaluation of the monkey GnRH receptor by the aequorin assay.
The aequorin assay has been widely used to monitor the changes in the cytosolic Ca^2+ concentration caused by the activation of the G-protein coupled receptors. […] The plate was read immediately in a Bioluminomitor (Lumino Skan RS) for 30 seconds. […] The remaining unreacted aequorin was determined by lysing the cells with 0.1% Triton X-100 (Sigma, St. Louis, Mo.). […] The percentage of aequorin which responded to GnRH challenge was calculated as P1/(P1+P2). […]

Row | specific binding, fold above the non-specific binding [1] [fold] | fold above the background [2] [fold] | specific binding activity [2] [cpm] | GnRH-stimulated PI turnover, EC50 [3] [nM] | aequorin bioluminescence assay, AUC for P1 [3] | aequorin bioluminescence assay, EC50 of GnRH [3] [nM] | aequorin bioluminescence assay, P1/(P1+P2) ratio [3] [%] | EC50 [4] [nM] | EC50 [5] [nM] | Molecule
1 | 3 | 5 | 645 |  |  |  |  |  |  | 5-(125Iodo-Tyr)-Buserelin (peptide)
2 |  |  |  | 0.43 | 1290 | 2 | 71 | 0.43 | 2 | Gonadotropin-releasing hormone (neuronal decapeptide hormone released from hypothalamus; obtained from a vendor and used as agonist) peptide: QHWSYGLRPGGKRDAENLIDSFQEIVKEVGQLAETQRFECTTHQPRSPLRDLKGALESLIEEETGQKKI
